Assay results taken from US12098206B2, “PDGF receptor antibody and use thereof” (Seoul National University R&DB Foundation, priority 2018, dated 2024).

B1: PRb-CN16: anti-hPDGFR-β scFv clone (VH SEQ ID NO 39, VL SEQ ID NO 40), tested as scFv-Cκ-anti-cotinine scFv bispecific antibody (antibody, V domains shown)
VH: AVTLDESGGGLQTPGTALSLVCKASGFTFSSFNMAWVRQAPGKGLEFVGEISNTAGSTFYAPAVKGRATISRDNGQSTVRLQLNNLRAEDTAIYYCAKAAGTCYSHSCTGYIDAWGHGTEVIVSSTS
VL: LTQPSSVSANPGETVKITCSGSSSSYGWYQQKSPGSAPVTLIYENNQRPSNIPSRFSGSKSGSTGTLTITGVQAEDEAVYYCGNADRSNSAGTFGAGTTLTVL
modifications: VH of PRb-CN16; VL of PRb-CN16
B2: PRb-CN32: anti-hPDGFR-β scFv clone (VH SEQ ID NO 47, VL SEQ ID NO 48), tested as scFv-Cκ-anti-cotinine scFv bispecific antibody (antibody, V domains shown)
VH: AVTLDESGGGLQTPRGTLSLVCKASGFTFSSFNMFWVRQAPGKGLEFVAGISTTGRYTGYGSAVQGRGTISRDNGQSTVRLQLNNLRAEDTGTYYCAKSAGSTYSYWDSDAGLIDAWGHGTEVIVSSTS
VL: LTQPSSVSANLGETVKITCSGGSNAGSYYYGWYQQKSPGSAPVTVIYSNNQRPSDIPSRFSGSTSGSTSTLTITGVQVDDEAVYFCGSGDSSSIAAFGAGTTLTVL
modifications: VH of PRb-CN32; VL of PRb-CN32
B3: PRb-CN26: anti-hPDGFR-β scFv clone (VH SEQ ID NO 55, VL SEQ ID NO 56), tested as scFv-Cκ-anti-cotinine scFv bispecific antibody (antibody, V domains shown)
VH: AVTLDESGGGLQTPGGGLSLVCKASGFTFSDRGIHWVRQAPGKGLEWVAGIGNTGSYTAYAPAVKGRATISRDNGQSTVRLQLNNLRAEDTATYYCAKRGFMDAGGIDAWGHGTEVIVSSTS
VL: LTQPSSVSANPGETVKITCSGGGSYAGSYYYGWYQQKSPGSAPVTVIYDNTNRPSNIPSRFSGSLSGSTDTLTITGVQAEDEAVYFCGGYDGISDTGIFGAGTTLTVL
modifications: VH of PRb-CN26; VL of PRb-CN26
B4: PRb-CN01: anti-mPDGFR-β chicken scFv clone (VH SEQ ID NO 7, VL SEQ ID NO 8), tested as scFv-Cκ-anti-cotinine scFv bispecific antibody (antibody, V domains shown)
VH: AVTLDESGGGLQTPGGALSLVCKASGFTFSDRAMHWVRQAPGKGLEWVGLITNTGGSTNYGAAVKGRATISRDNGQSTVRLQLNNLRAEDTGTYYCTRGVGSWAHGGRIDAWGHGTEVIVSS
VL: LTQPSSVSANPGETVKITCSGGSGSYGWFQQKSPGSAPVTVIYSNNQRPSDIPSRFSGSKSGSTNTLTITGVQAEDEAIYYCGTRDSSYVGIFGAGTTLTVL
modifications: VH of PRb-CN01; VL of PRb-CN01

Columns and labels:
PDGFR-β [1] = target: T1, PDGFR-β (Homo sapiens, UniProt P09619); test: Competition enzyme immunoassay with hPDGF-BB; type: binding; design: made in house; conditions: hPDGF-BB 100 nM
T1 sequence (P09619 33-531): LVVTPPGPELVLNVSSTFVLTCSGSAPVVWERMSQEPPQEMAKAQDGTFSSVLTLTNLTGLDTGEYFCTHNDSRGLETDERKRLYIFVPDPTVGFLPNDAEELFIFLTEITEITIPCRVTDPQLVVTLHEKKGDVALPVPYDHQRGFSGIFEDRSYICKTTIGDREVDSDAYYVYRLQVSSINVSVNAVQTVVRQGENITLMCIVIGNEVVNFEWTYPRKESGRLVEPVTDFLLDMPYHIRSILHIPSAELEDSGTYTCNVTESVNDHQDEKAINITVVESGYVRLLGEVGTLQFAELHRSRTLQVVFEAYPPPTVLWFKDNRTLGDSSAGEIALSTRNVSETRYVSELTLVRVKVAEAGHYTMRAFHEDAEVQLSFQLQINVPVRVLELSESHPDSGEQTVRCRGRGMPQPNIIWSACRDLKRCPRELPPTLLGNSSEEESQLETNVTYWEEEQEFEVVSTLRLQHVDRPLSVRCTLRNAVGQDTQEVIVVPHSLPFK
Experimental: In order to confirm the competition between the bispecific antibody scFv-Cκ-scFv and hPDGF-BB, as in Example 3, hPDGFR-β-Fc chimera was coated on a microtiter plate and then blocked. The microtiter plate was treated with various concentrations of the bispecific antibody (0.01 nM-1 μM) with or without addition of hPDGF-BB (100 nM; 220-BB; R&D systems), and then incubated at 37° C. for 2 hours. The washing, incubation, and detection were performed in the same manner as the enzyme immunoassay described above.

hPDGFR-β and cotinine = target: T2, hPDGFR-β and cotinine (Homo sapiens, UniProt P09619); test: Enzyme immunoassay, simultaneous binding to cotinine and hPDGFR-β; conditions: cotinine-BSA coated wells, then hPDGFR-β-Fc chimera; FIG. 12d
T2 construct: made in house
T2 sequence (P09619 33-531): as above
Experimental: In order to determine of the simultaneous binding ability of cotinine and hPDGFR-β, an anti-hPDGFR-β x cotinine scFv-Cκ-scFv fusion protein was cultured in wells coated with cotinine-BSA. Washing was performed for each process, and hPDGFR-β-Fc chimeric protein and HRP-anti human Fc antibody were incubated in order. The three kinds of bispecific antibody scFv-Cκ-scFv fusion proteins simultaneously bound to hPDGFR-β and cotinine (FIG. 12d).

PDGFR-β [2] = target: T1, PDGFR-β; test: Enzyme immunoassay on hPDGFR-β-Fc chimera coated plate; type: binding; design: made in house; conditions: 100 nM; FIG. 17
Experimental: 100 ng of hPDGFR-β-Fc chimera in the coating buffer or extracellular region of TNF-α receptor-human Fc fusion protein was coated on a microtiter plate at 4° C. O/N. Each well was blocked with 150 μL of 3% (w/v) BSA (bovine serum albumin) in PBS as a blocking agent at 37° C. for 1 hour. After treatment with various concentrations of bispecific antibodies of scFv-Cκ-scFv fusion protein (0.01 nM-1 μM), the analysis was performed in the same protocol of the concentration-dependent binding ability of anti-mPDGFRR-β scFv-Cκ-scFv fusion protein.
(§1) 100 ng of hPDGFR-β, mPDGFR-β, rhesus PDGFR-β (90215-C02H, Sino Biological Inc. Beijing, China), cynomolgus monkey PDGFR-β, Sus scrofa PDGFR-β-Fc chimera or TNF-α receptor extracellular domain-human Fc fusion protein was coated with 4° C. temperature O/N. After blocking the wells, sequential culture of the anti-hPDGFR-β scFv-Cκ-scFv fusion protein and the HRP conjugated anti-human Cκ antibody was followed in the same manner as in Example 3.

[3] = target: T3, human pericyte cells expressing hPDGFR-β (Homo sapiens, UniProt P09619); test: Flow cytometry binding to human pericyte cells expressing hPDGFR-β; conditions: 100 nM antibody, FIG. 13b
T3 construct: host or cells: human pericyte cells
T3 sequence (P09619 33-1106): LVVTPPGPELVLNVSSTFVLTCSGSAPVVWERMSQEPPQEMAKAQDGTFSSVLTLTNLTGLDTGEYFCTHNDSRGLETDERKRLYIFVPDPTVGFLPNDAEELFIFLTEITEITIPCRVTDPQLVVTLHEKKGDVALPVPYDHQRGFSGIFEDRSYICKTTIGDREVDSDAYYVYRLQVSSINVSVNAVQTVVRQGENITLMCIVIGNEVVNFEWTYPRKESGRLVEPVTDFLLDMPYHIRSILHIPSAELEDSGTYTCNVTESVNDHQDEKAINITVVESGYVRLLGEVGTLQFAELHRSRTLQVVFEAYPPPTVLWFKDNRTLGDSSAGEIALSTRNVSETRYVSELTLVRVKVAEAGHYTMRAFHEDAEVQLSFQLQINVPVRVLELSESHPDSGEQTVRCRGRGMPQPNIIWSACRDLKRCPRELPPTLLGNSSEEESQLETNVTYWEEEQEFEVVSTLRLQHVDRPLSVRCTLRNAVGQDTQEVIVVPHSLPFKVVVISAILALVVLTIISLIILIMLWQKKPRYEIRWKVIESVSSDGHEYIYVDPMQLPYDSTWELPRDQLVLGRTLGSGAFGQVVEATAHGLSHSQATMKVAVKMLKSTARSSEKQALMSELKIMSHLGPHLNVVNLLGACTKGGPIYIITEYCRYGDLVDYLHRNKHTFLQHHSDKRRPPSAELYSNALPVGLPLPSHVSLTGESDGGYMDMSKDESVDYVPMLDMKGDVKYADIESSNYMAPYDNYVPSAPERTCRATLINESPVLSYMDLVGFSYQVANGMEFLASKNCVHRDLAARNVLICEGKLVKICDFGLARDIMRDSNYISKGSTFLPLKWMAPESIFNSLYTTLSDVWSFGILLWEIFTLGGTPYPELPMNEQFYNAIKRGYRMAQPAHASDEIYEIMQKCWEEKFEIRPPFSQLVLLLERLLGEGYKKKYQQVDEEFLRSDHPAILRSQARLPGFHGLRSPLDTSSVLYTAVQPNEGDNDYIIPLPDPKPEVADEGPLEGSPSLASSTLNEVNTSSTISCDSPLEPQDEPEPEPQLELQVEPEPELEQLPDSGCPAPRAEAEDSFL
Experimental: Human pericyte cells were cultured at 4° C. for 1 hour using the bispecific antibody of scFv-Cκ-scFv fusion protein (100 nM) under two different conditions with or without hPDGF-BB-biotin (100 nM, BT220; R&D systems). The cells were washed 4 times with flow cytometry buffer and cultured with allophycocyanin (APC)-anti-human Cκ antibody (clone TB28-2; BD Biosciences, San Jose, CA, USA) and streptavidin-phycoerythrin (PE) (12-4317-87; eBioscience, ThermoFisher). After washing, it was classified and analyzed with a FACS Canto II instrument (BD Biosciences, San Jose, CA, USA). 10,000 cells were used for each measurement, and the results were analyzed by FlowJo (Tree Star, Ashland, OR, USA).

Sus scrofa PDGFR-β = test: Cross-species enzyme immunoassay, Sus scrofa PDGFR-β; type: binding; conditions: 100 nM; FIG. 17
Chain of Sus scrofa PDGFR-β (as listed by the source): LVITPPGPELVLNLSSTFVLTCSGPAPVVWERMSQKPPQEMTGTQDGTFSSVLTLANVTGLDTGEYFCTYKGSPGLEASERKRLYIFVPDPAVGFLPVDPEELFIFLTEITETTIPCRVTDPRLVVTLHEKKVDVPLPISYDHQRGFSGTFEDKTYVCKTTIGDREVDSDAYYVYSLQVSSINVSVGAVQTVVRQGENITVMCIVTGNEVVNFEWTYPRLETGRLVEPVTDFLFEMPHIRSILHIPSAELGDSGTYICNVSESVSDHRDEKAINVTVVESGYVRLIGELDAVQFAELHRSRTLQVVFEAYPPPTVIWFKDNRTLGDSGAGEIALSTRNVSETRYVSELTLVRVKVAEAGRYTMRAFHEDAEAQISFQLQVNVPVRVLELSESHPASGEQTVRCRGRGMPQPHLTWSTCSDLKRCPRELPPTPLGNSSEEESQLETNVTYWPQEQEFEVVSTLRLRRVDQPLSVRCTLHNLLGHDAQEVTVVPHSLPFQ
Experimental: as §1
(§2) FIG. 17 is a graph showing an experiment of the cross-species reaction of the bispecific antibody against the anti-hPDGFR-β antibody according to the present invention. On the microtiter plates coated with hPDGFR-β, mPDGFR-β, Rhesus PDGFR-β, Cynomolgus monkey PDGFR-β, Sus scrofa PDGFR-β and control Fc coated, the bispecific antibody containing anti-hPDGFR-β antibody according to the present invention (100 nM) was reacted and the amount of bound bispecific antibody was measured using HRP conjugated anti-human Cκ antibody and TMB.

[4] = test system: Cynomolgus monkey PDGFR-β; test: Cross-species enzyme immunoassay, Cynomolgus monkey PDGFR-β; type: binding; conditions: 100 nM; FIG. 17
Chain of Cynomolgus monkey PDGFR-β (as listed by the source): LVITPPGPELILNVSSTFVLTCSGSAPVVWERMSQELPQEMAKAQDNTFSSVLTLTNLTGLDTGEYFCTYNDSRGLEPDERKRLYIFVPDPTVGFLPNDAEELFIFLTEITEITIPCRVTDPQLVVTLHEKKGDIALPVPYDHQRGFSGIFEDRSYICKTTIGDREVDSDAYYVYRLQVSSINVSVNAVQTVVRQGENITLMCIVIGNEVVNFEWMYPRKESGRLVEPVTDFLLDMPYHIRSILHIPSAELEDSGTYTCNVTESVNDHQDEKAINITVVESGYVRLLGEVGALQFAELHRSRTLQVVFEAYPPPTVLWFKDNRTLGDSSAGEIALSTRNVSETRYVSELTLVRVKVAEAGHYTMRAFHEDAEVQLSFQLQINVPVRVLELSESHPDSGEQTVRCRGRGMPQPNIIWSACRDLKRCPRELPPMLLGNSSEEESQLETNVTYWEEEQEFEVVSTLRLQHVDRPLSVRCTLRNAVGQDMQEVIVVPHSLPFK
Experimental: as §1, §2

[5] = target: T4, NIH3T3 cells expressing mPDGFR-β (Mus musculus, UniProt P05622); test: Flow cytometry binding to NIH3T3 cells expressing mPDGFR-β; conditions: for binding to NIH3T3 cells: 100 nM, FIG. 18
T4 construct: host or cells: NIH3T3
T4 sequence (P05622 32-1098): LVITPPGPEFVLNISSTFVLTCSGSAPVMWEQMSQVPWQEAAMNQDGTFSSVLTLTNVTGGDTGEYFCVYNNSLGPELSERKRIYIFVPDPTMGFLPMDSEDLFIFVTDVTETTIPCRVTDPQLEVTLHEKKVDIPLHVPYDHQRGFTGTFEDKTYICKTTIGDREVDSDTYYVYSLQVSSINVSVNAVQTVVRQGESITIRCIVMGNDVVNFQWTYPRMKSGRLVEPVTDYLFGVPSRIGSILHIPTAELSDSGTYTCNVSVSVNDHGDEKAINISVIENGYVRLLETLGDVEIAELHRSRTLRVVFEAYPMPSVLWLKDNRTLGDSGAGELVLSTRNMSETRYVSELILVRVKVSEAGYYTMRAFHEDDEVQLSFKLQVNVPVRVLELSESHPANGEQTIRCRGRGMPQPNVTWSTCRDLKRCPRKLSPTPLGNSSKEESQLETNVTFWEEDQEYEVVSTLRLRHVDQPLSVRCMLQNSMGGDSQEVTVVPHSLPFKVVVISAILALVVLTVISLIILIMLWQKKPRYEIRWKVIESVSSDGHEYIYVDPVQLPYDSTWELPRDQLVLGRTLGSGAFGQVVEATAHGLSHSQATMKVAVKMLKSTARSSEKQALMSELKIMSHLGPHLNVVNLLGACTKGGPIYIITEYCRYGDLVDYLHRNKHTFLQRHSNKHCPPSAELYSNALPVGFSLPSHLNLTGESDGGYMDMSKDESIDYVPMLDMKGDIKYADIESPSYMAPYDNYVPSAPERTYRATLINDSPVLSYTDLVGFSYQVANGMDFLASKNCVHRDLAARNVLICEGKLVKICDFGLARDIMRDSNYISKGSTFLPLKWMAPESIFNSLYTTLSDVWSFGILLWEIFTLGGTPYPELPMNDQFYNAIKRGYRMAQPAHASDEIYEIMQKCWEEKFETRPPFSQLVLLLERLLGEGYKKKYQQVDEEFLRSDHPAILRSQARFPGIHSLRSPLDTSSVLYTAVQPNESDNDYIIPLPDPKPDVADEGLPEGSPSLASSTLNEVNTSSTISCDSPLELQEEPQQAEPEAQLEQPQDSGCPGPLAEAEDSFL
Experimental: mPDGF-BB was biotinylated using a biotin-xx microscale protein labeling kit (Invitrogen) according to the manufacturer's instructions. NIH3T3 cells were cultured at 4° C. for 1 hour using the bispecific antibody of scFv-Cκ-scFv fusion protein (100 nM) under two different conditions with or without mPDGF-BB-biotin (100 nM). The cells were washed 4 times with flow cytometry buffer and cultured with allophycocyanin (APC)-anti-human Cκ antibody (clone TB28-2; BD Biosciences, San Jose, CA, USA) and streptavidin-phycoerythrin (PE) (12-4317-87; eBioscience, ThermoFisher). After washing, it was classified and analyzed with a FACS Canto II instrument (BD Biosciences, San Jose, CA, USA). 10,000 cells were used for each measurement, and the results were analyzed by FlowJo (Tree Star, Ashland, OR, USA). […] The binding ability of the other three clones was inhibited by mPDGF-BB.
Specifically, the bispecific antibody scFv-Cκ-scFv fusion protein (100 nM) in flow cytometry buffer was cultured on NIH3T3 cells expressing mPDGFR-β. The cells were treated with APC-anti human Cκ antibody. The bispecific antibody anti-HER2 x cotinine scFv-Cκ-scFv fusion protein was used as a negative control.

Row | Molecule | binding ability to hPDGFR-β in the presence of hPDGF-BB (PDGFR-β [1]) | simultaneous binding to hPDGFR-β and cotinine (hPDGFR-β and cotinine) | cross-species binding, hPDGFR-β (PDGFR-β [2]) | cell binding in the presence of hPDGF-BB-biotin [3] | cross-species binding, Sus scrofa PDGFR-β (Sus scrofa PDGFR-β) | cross-species binding, Cynomolgus monkey PDGFR-β [4] | binding to NIH3T3 cells [5] | cell binding in the presence of mPDGF-BB-biotin ([5]; 100 nM antibody, mPDGF-BB-biotin 100 nM, FIG. 4b)
1 | B1 | not inhibited in the presence of hPDGF-BB | capable of simultaneously binding hPDGFR-β and cotinine | confirmed to bind | able to bind to hPDGFR-β in the presence of hPDGF-BB-biotin | confirmed to bind | confirmed to bind | – | –
2 | B2 | not inhibited in the presence of hPDGF-BB | capable of simultaneously binding hPDGFR-β and cotinine | confirmed to bind | able to bind to hPDGFR-β in the presence of hPDGF-BB-biotin | confirmed to bind | confirmed to bind | bound to NIH3T3 cells | –
3 | B3 | not inhibited in the presence of hPDGF-BB | capable of simultaneously binding hPDGFR-β and cotinine | confirmed to bind | able to bind to hPDGFR-β in the presence of hPDGF-BB-biotin | confirmed to bind | confirmed to bind | – | –
4 | B4 | – | – | – | – | – | – | bound to NIH3T3 cells | bound to PDGFR-β present on the cell surface
